Test results: patent US20230235012A1 (ALPINE IMMUNE SCIENCES, published 2023)
Where a chain is given by its changes, count along the chain named. Numbers in names are those of the source.

T1: human ICOS (human, UniProt Q9Y6W8 21-199)
T1 construct: whole, on cells
T1 sequence (looked up): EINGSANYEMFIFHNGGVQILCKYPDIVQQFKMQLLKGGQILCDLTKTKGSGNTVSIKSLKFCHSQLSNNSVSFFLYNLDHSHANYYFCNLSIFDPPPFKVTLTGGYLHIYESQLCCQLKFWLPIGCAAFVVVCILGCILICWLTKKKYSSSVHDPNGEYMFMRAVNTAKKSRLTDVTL

T2: human ICOS, full-length, expressed on transfected Expi293 cells (human, UniProt Q9Y6W8 21-199)
T2 construct: whole, on cells
T2 sequence (looked up): T1 sequence (looked up)

B1: ICOSL ECD Truncation #4 with N52H/N57Y/Q100R/F172S and E200G, Fc fusion (Fc fusion)
chain: DTQEKEVRAMVGSDVELSCACPEGSRFDLNDVYVYWQTSESKTVVTYHIPQHSSLEYVDSRYRNRALMSPAGMLRGDFSLRLFNVTPQDEQKFHCLVLSRSLGFQEVLSVEVTLHVAANFSVPVVSAPHSPSQDELTFTCTSINGYPRPNVYWINKTDNSLLDQALQNDTVSLNMRGLYDVVSVLRIARTPSVNIGCCIGNVLLQQNGGGGSGGGGSEPKSSDKTHTCPPCPAPEAEGAPSVFLFPPKPKDTLMISRTPEVTCVVVDVSHEDPEVKFNWYVDGVEVHNAKTKPREEQYNSTYRVVSVLTVLHQDWLNGKEYKCKVSNKALPAPIEKTISKAKGQPREPQVYTLPPSREEMTKNQVSLTCLVKGFYPSDIAVEWESNGQPENNYKTTPPVLDSDGSFFLYSKLTVDKSRWQQGNVFSCSVMHEALHNHYTQKSLSLSPG
B2: ICOSL IgV with N52H/N57Y/Q100R and H48R/S54P, Fc fusion (Fc fusion)
chain: DTQEKEVRAMVGSDVELSCACPEGSRFDLNDVYVYWQTSESKTVVTYRIPQHSPLEYVDSRYRNRALMSPAGMLRGDFSLRLFNVTPQDEQKFHCLVLSRSLGFQEVLSVEVTLHVAANFSVGGGGSGGGGSEPKSSDKTHTCPPCPAPEAEGAPSVFLFPPKPKDTLMISRTPEVTCVVVDVSHEDPEVKFNWYVDGVEVHNAKTKPREEQYNSTYRVVSVLTVLHQDWLNGKEYKCKVSNKALPAPIEKTISKAKGQPREPQVYTLPPSREEMTKNQVSLTCLVKGFYPSDIAVEWESNGQPENNYKTTPPVLDSDGSFFLYSKLTVDKSRWQQGNVFSCSVMHEALHNHYTQKSLSLSPG
B3: ICOSL ECD Truncation #7 with N52H/N57Y/Q100R/C198R and E90K/E111G, Fc fusion (Fc fusion)
chain: DTQEKEVRAMVGSDVELSCACPEGSRFDLNDVYVYWQTSESKTVVTYHIPQHSSLEYVDSRYRNRALMSPAGMLRGDFSLRLFNVTPQDKQKFHCLVLSRSLGFQEVLSVGVTLHVAANFSVPVVSAPHSPSQDELTFTCTSINGYPRPNVYWINKTDNSLLDQALQNDTVFLNMRGLYDVVSVLRIARTPSVNIGCRIENGGGGSGGGGSEPKSSDKTHTCPPCPAPEAEGAPSVFLFPPKPKDTLMISRTPEVTCVVVDVSHEDPEVKFNWYVDGVEVHNAKTKPREEQYNSTYRVVSVLTVLHQDWLNGKEYKCKVSNKALPAPIEKTISKAKGQPREPQVYTLPPSREEMTKNQVSLTCLVKGFYPSDIAVEWESNGQPENNYKTTPPVLDSDGSFFLYSKLTVDKSRWQQGNVFSCSVMHEALHNHYTQKSLSLSPG
notes: not restated for the C198R set
B4: ICOSL ECD Truncation #7 with N52H/N57Y/Q100R/F172S and F83S, Fc fusion (Fc fusion)
chain: B3 chain with F83S, K90E, G111E, F172S, R198C
B5: ICOSL ECD with N52H/N57Y/Q100R/C198R, Fc fusion (Table 30C) (Fc fusion)
chain: DTQEKEVRAMVGSDVELSCACPEGSRFDLNDVYVYWQTSESKTVVTYHIPQHSSLEYVDSRYRNRALMSPAGMLRGDFSLRLFNVTPQDEQKFHCLVLSRSLGFQEVLSVEVTLHVAANFSVPVVSAPHSPSQDELTFTCTSINGYPRPNVYWINKTDNSLLDQALQNDTVFLNMRGLYDVVSVLRIARTPSVNIGCRIENVLLQQNLTVGSQTGNDIGERDKITENPVSTGEKNAATGGGGSGGGGSEPKSSDKTHTCPPCPAPEAEGAPSVFLFPPKPKDTLMISRTPEVTCVVVDVSHEDPEVKFNWYVDGVEVHNAKTKPREEQYNSTYRVVSVLTVLHQDWLNGKEYKCKVSNKALPAPIEKTISKAKGQPREPQVYTLPPSREEMTKNQVSLTCLVKGFYPSDIAVEWESNGQPENNYKTTPPVLDSDGSFFLYSKLTVDKSRWQQGNVFSCSVMHEALHNHYTQKSLSLSPG
notes: as for B3
B6: ICOSL ECD Truncation #6 with N52H/N57Y/Q100R/F172S, Fc fusion (Fc fusion)
chain: DTQEKEVRAMVGSDVELSCACPEGSRFDLNDVYVYWQTSESKTVVTYHIPQHSSLEYVDSRYRNRALMSPAGMLRGDFSLRLFNVTPQDEQKFHCLVLSRSLGFQEVLSVEVTLHVAANFSVPVVSAPHSPSQDELTFTCTSINGYPRPNVYWINKTDNSLLDQALQNDTVSLNMRGLYDVVSVLRIARTPSVNIGCCIENVLLGGGGSGGGGSEPKSSDKTHTCPPCPAPEAEGAPSVFLFPPKPKDTLMISRTPEVTCVVVDVSHEDPEVKFNWYVDGVEVHNAKTKPREEQYNSTYRVVSVLTVLHQDWLNGKEYKCKVSNKALPAPIEKTISKAKGQPREPQVYTLPPSREEMTKNQVSLTCLVKGFYPSDIAVEWESNGQPENNYKTTPPVLDSDGSFFLYSKLTVDKSRWQQGNVFSCSVMHEALHNHYTQKSLSLSPG
B7: ICOSL ECD Truncation #6 with N52H/N57Y/Q100R/C198R, Fc fusion (Fc fusion)
chain: B6 chain with S172F, C198R
notes: as for B3
B8: ICOSL ECD Truncation #8 with N207G/L208G and N52H/N57Y/Q100R/F172S, Fc fusion (Fc fusion)
chain: DTQEKEVRAMVGSDVELSCACPEGSRFDLNDVYVYWQTSESKTVVTYHIPQHSSLEYVDSRYRNRALMSPAGMLRGDFSLRLFNVTPQDEQKFHCLVLSRSLGFQEVLSVEVTLHVAANFSVPVVSAPHSPSQDELTFTCTSINGYPRPNVYWINKTDNSLLDQALQNDTVSLNMRGLYDVVSVLRIARTPSVNIGCCIENVLLQQGGTGGGGSGGGGSEPKSSDKTHTCPPCPAPEAEGAPSVFLFPPKPKDTLMISRTPEVTCVVVDVSHEDPEVKFNWYVDGVEVHNAKTKPREEQYNSTYRVVSVLTVLHQDWLNGKEYKCKVSNKALPAPIEKTISKAKGQPREPQVYTLPPSREEMTKNQVSLTCLVKGFYPSDIAVEWESNGQPENNYKTTPPVLDSDGSFFLYSKLTVDKSRWQQGNVFSCSVMHEALHNHYTQKSLSLSPG
B9: variant ICOSL IgV-Fc fusion N52H/N57Y/Q100R (Fc fusion, not shown: a dimerising Fc or GST)
chain: DTQEKEVRAMVGSDVELSCACPEGSRFDLNDVYVYWQTSESKTVVTYHIPQHSSLEYVDSRYRNRALMSPAGMLRGDFSLRLFNVTPQDEQKFHCLVLSRSLGFQEVLSVEVTLHVAANFSV
B10: variant ICOSL IgV-Fc fusion N52S/N57Y/Q100V (Fc fusion)
chain: DTQEKEVRAMVGSDVELSCACPEGSRFDLNDVYVYWQTSESKTVVTYHIPQSSSLEYVDSRYRNRALMSPAGMLRGDFSLRLFNVTPQDEQKFHCLVLSVSLGFQEVLSVEVTLHVAANFSVGSGGGGSEPKSSDKTHTCPPCPAPEAEGAPSVFLFPPKPKDTLMISRTPEVTCVVVDVSHEDPEVKFNWYVDGVEVHNAKTKPREEQYNSTYRVVSVLTVLHQDWLNGKEYKCKVSNKALPAPIEKTISKAKGQPREPQVYTLPPSREEMTKNQVSLTCLVKGFYPSDIAVEWESNGQPENNYKTTPPVLDSDGSFFLYSKLTVDKSRWQQGNVFSCSVMHEALHNHYTQKSLSLSPG
B11: variant ICOSL IgV-Fc fusion N52V/N57T/Q100L (Fc fusion)
chain: B10 chain with S52V, Y57T, V100L
B12: variant ICOSL IgV-Fc fusion N52T/N57H/Q100A (Fc fusion)
chain: B10 chain with S52T, Y57H, V100A
B13: variant ICOSL IgV-Fc fusion N52T/N57H/Q100S (Fc fusion)
chain: B10 chain with S52T, Y57H, V100S
B14: variant ICOSL IgV-Fc fusion N57Q/Q100P (Fc fusion)
chain: B10 chain with S52N, Y57Q, V100P
B15: variant ICOSL ECD-Fc fusion, full length N52H/N57Y/Q100R/F172S (Fc fusion, not shown: a dimerising Fc or GST)
chain: DTQEKEVRAMVGSDVELSCACPEGSRFDLNDVYVYWQTSESKTVVTYHIPQHSSLEYVDSRYRNRALMSPAGMLRGDFSLRLFNVTPQDEQKFHCLVLSRSLGFQEVLSVEVTLHVAANFSVPVVSAPHSPSQDELTFTCTSINGYPRPNVYWINKTDNSLLDQALQNDTVSLNMRGLYDVVSVLRIARTPSVNIGCCIENVLLQQNLTVGSQTGNDIGERDKITENPVSTGEKNAAT

target: T3, human CD28 (human, UniProt P10747 19-220); assay: flow cytometry, transfected cells; protein from CHO
T3 construct: whole, on cells

MFI	MFI ratio to WT	Binder
80600 MFI	46.6 fold	B1
75300 MFI	43.6 fold	B2
38900 MFI	22.5 fold	B3
88300 MFI	51.1 fold	B4
59200 MFI	34.3 fold	B5
91300 MFI	52.8 fold	B6
84600 MFI	49 fold	B7
108000 MFI	62.4 fold	B8

target: T1, human ICOS; assay: as above

MFI	MFI ratio to WT	Binder
108000 MFI	1.1 fold	B1
143000 MFI	1.4 fold	B2
54600 MFI	0.5 fold	B3
106000 MFI	1.1 fold	B4
139000 MFI	1.4 fold	B5
90100 MFI	0.9 fold	B6
91400 MFI	0.9 fold	B7
133000 MFI	1.3 fold	B8

target: T4, human CTLA-4 (human, UniProt P16410 36-223); assay: as above
T4 construct: whole, on cells
T4 sequence (P16410 36-223): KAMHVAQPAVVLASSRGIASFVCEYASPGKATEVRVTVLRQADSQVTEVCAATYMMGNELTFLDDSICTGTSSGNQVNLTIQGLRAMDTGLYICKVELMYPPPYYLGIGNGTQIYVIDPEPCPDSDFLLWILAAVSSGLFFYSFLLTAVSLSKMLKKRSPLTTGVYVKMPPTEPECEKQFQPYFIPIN

MFI	MFI ratio to WT	Binder
320000 MFI	42.3 fold	B1
322000 MFI	42.4 fold	B2
83700 MFI	11 fold	B3
207000 MFI	27.3 fold	B4
133000 MFI	17.5 fold	B5
240000 MFI	31.6 fold	B6
236000 MFI	31.1 fold	B7
308000 MFI	40.7 fold	B8

target: T5, human CD28, full-length, expressed on transfected Expi293 cells (human, UniProt P10747 19-220); assay: flow cytometry, 100 nM, Expi293 cells with human CD28
T5 construct: whole, on cells

MFI	MFI ratio to WT (ΔWT)	Binder
142000 MFI	6.4 fold	B9
126000 MFI	5.7 fold	B10
6200 MFI	0.3 fold	B11
113000 MFI	5 fold	B12
143000 MFI	6.4 fold	B13
15200 MFI	0.7 fold	B14
138000 MFI	6.2 fold	B15

target: T2, human ICOS, full-length, expressed on …; assay: flow cytometry, 100 nM, Expi293 cells with human ICOS

MFI	MFI ratio to WT (ΔWT)	Binder
200000 MFI	0.94 fold	B9
219000 MFI	1.03 fold	B10
29200 MFI	0.14 fold	B11
220000 MFI	1.04 fold	B12
259000 MFI	1.22 fold	B13
205000 MFI	0.97 fold	B14
238000 MFI	1.12 fold	B15

target: T6, human CTLA-4, full-length, expressed on transfected Expi293 cells (human, UniProt P16410 36-223); assay: flow cytometry, 100 nM, Expi293 cells with human CTLA-4
T6 construct: whole, on cells
T6 sequence (P16410 36-223): as above

MFI	MFI ratio to WT (ΔWT)	Binder
817000 MFI	2.47 fold	B9
305000 MFI	0.92 fold	B10
11500 MFI	0.03 fold	B11
350000 MFI	1.06 fold	B12
378000 MFI	1.14 fold	B13
69100 MFI	0.21 fold	B14
606000 MFI	1.83 fold	B15
